# B1: ANKRD17 (parent)
# chain: EVLRRLTSSVSCALDEAAAALTRM
# Variants of: B1
# Assay: protein stability index of a GFP-peptide fusion (GPS, HEK-293T) (PSI 1-6); higher = more stable
# Settings: c terminus: a fixed tail appended
# 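Further: lentivirally expressed fusions sorted by FACS into six bins by GFP to DsRed ratio, PSI derived from sequencing read proportions per bin multiplied by bin number.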
row,Variant,protein stability index
1,EVLRRLSSSVSCALDEAAAALTRM [T7S],2.09
2,EVLRRLPSSVSCALDEAAAALTRM [T7P],2.52
3,EVLRRLQSSVSCALDEAAAALTRM [T7Q],2.6
4,EVLRRLMSSVSCALDEAAAALTRM [T7M],2.05
5,EVLRRLVSSVSCALDEAAAALTRM [T7V],3
6,EVLRRLLSSVSCALDEAAAALTRM [T7L],2.95
7,EVLRRLNSSVSCALDEAAAALTRM [T7N],1.16
8,EVLRRLWSSVSCALDEAAAALTRM [T7W],1.98
9,EVLRRLRSSVSCALDEAAAALTRM [T7R],3
10,EVLRRLYSSVSCALDEAAAALTRM [T7Y],2.2
11,EVLRRLTSSVSNALDEAAAALTRM [C12N],3.93
12,EVLRRLTSSVSTALDEAAAALTRM [C12T],2.97
13,EVLRRLTSSVSFALDEAAAALTRM [C12F],1.78
14,EVLRRLTSSVSAALDEAAAALTRM [C12A],3.05
15,EVLRRLTSSVSIALDEAAAALTRM [C12I],1.71
16,EVLRRLTSSVSPALDEAAAALTRM [C12P],1.91
17,EVLRRLTSSVSEALDEAAAALTRM [C12E],3
18,EVLRRLTSSVSVALDEAAAALTRM [C12V],2.48
19,EVLRRLTSSVSWALDEAAAALTRM [C12W],2.27
20,EVLRRLTSSVSMALDEAAAALTRM [C12M],1.74
21,EVLRRLTSSVSLALDEAAAALTRM [C12L],2.75
22,EVLRRLTSSVSQALDEAAAALTRM [C12Q],2.41
23,EVLRRLTSSVSGALDEAAAALTRM [C12G],3.18
24,EVLRRLTSSVSSALDEAAAALTRM [C12S],2.69

row,Variant,protein stability index
1,EVLRRLTSSVSKALDEAAAALTRM [C12K],2.73
2,EVLRRLTSSVSYALDEAAAALTRM [C12Y],1.65
3,EVLRRLTSSVSHALDEAAAALTRM [C12H],4.25
4,EVLRRLTSFVSCALDEAAAALTRM [S9F],2.38
5,EVLRRLTSYVSCALDEAAAALTRM [S9Y],1.58
6,EVLRRLTSEVSCALDEAAAALTRM [S9E],1.47
7,EVLRRLTSTVSCALDEAAAALTRM [S9T],1.66
8,EVLRRLTSGVSCALDEAAAALTRM [S9G],1.64
9,EVLRRLTSRVSCALDEAAAALTRM [S9R],2.69
10,EVLRRLTSDVSCALDEAAAALTRM [S9D],1.65
11,EVLRRLTSWVSCALDEAAAALTRM [S9W],2.63
12,EVLRRLTSNVSCALDEAAAALTRM [S9N],1.81
13,EVLRRLTSPVSCALDEAAAALTRM [S9P],1.94
14,EVLRRLTSCVSCALDEAAAALTRM [S9C],1.87
15,EVLRRLTSIVSCALDEAAAALTRM [S9I],1.97
16,EVLRRLTSQVSCALDEAAAALTRM [S9Q],2.21
17,EVLRRLTSMVSCALDEAAAALTRM [S9M],2.49
18,EVLRRLTSAVSCALDEAAAALTRM [S9A],2.11
19,EVLRRLTSSVSCALDEAALALTRM [A19L],2.35
20,EVLRRLTSSVSCALDEAAFALTRM [A19F],3.41
21,EVLRRLTSSVSCALDEAASALTRM [A19S],2.16
22,EVLRRLTSSVSCALDEAAEALTRM [A19E],2.12
23,EVLRRLTSSVSCALDEAATALTRM [A19T],2.29
24,EVLRRLTSSVSCALDEAAVALTRM [A19V],2.99

row,Variant,protein stability index
1,EVLRRLTSSVSCALDEAAKALTRM [A19K],2.6
2,EVLRRLTSSVSCALDEAAHALTRM [A19H],1.78
3,EVLRRLTSSVSCALDEAAPALTRM [A19P],2.25
4,EVLRRLTSSVSCALDEAANALTRM [A19N],2.55
5,EVLRRLTSSVSCALDEAAIALTRM [A19I],1.88
6,EVLRRLTSSVSCALDEAADALTRM [A19D],1.83
7,EVLRRLTSSVSCALDEAAGALTRM [A19G],2.3
8,EVLRRLTSSTSCALDEAAAALTRM [V10T],1.3
9,EVLRRLTSSHSCALDEAAAALTRM [V10H],1.74
10,EVLRRLTSSLSCALDEAAAALTRM [V10L],2.21
11,EVLRRLTSSESCALDEAAAALTRM [V10E],1.81
12,EVLRRLTSSSSCALDEAAAALTRM [V10S],1.83
13,EVLRRLTSSASCALDEAAAALTRM [V10A],3.08
14,EVLRRLTSSGSCALDEAAAALTRM [V10G],1.1
15,EVLRRLTSSYSCALDEAAAALTRM [V10Y],1.65
16,EVLRRLTSSKSCALDEAAAALTRM [V10K],2.15
17,EVLRRLTSSRSCALDEAAAALTRM [V10R],1.07
18,EVLRRLTSSNSCALDEAAAALTRM [V10N],1.94
19,EVLRRLTSSPSCALDEAAAALTRM [V10P],1.29
20,EVLRRLTSSCSCALDEAAAALTRM [V10C],1.98
21,EVLRRLTSSDSCALDEAAAALTRM [V10D],3.61
22,EVLRRLTSSISCALDEAAAALTRM [V10I],2.13
23,EVLRRLTSSWSCALDEAAAALTRM [V10W],1.4
24,EVLRRLTSSVSCALDEAHAALTRM [A18H],1.68

row,Variant,protein stability index
1,EVLRRLTSSVSCALDEARAALTRM [A18R],2.43
2,EVLRRLTSSVSCALDEAEAALTRM [A18E],1.24
3,EVLRRLTSSVSCALDEAWAALTRM [A18W],1.64
4,EVLRRLTSSVSCALDEAQAALTRM [A18Q],2.4
5,EVLRRLTSSVSCALDEAPAALTRM [A18P],2.72
6,EVLRRLTSSVSCALDEAFAALTRM [A18F],1.94
7,EVLRRLTSSVSCALDEAYAALTRM [A18Y],1.69
8,EVLRRLTSSVSCALDEADAALTRM [A18D],1.89
9,EVLRRLTSSVSCALDEAIAALTRM [A18I],2.33
10,EVLRRLTSSVSCALDEAKAALTRM [A18K],2.92
11,EVLRRLTSSVSCALDEANAALTRM [A18N],1.8
12,EVLRRLTSSVSCALDEAGAALTRM [A18G],1.85
13,EVLRRLTSSVSCALDEALAALTRM [A18L],1.68
14,EVLRRLTSSVSCALDEAMAALTRM [A18M],2.25
15,EVLRRLTSSVSCALDEATAALTRM [A18T],2.27
16,EVLRRLTSSVSCALDEAVAALTRM [A18V],1.8
17,EVLRRLTTSVSCALDEAAAALTRM [S8T],3
18,EVLRRLTWSVSCALDEAAAALTRM [S8W],3.21
19,EVLRRLTQSVSCALDEAAAALTRM [S8Q],1.41
20,EVLRRLTFSVSCALDEAAAALTRM [S8F],4.21
21,EVLRRLTASVSCALDEAAAALTRM [S8A],1.68
22,EVLRRLTYSVSCALDEAAAALTRM [S8Y],1.99

# From the supplement of paper PMC10567573
